Molecular target: angiotensin-converting enzyme 2 (ACE2) (human) (UniProt Q9BYF1)
Experiment: other fluorescence titration

Chain of UniProt Q9BYF1 (Q9BYF1 18-805): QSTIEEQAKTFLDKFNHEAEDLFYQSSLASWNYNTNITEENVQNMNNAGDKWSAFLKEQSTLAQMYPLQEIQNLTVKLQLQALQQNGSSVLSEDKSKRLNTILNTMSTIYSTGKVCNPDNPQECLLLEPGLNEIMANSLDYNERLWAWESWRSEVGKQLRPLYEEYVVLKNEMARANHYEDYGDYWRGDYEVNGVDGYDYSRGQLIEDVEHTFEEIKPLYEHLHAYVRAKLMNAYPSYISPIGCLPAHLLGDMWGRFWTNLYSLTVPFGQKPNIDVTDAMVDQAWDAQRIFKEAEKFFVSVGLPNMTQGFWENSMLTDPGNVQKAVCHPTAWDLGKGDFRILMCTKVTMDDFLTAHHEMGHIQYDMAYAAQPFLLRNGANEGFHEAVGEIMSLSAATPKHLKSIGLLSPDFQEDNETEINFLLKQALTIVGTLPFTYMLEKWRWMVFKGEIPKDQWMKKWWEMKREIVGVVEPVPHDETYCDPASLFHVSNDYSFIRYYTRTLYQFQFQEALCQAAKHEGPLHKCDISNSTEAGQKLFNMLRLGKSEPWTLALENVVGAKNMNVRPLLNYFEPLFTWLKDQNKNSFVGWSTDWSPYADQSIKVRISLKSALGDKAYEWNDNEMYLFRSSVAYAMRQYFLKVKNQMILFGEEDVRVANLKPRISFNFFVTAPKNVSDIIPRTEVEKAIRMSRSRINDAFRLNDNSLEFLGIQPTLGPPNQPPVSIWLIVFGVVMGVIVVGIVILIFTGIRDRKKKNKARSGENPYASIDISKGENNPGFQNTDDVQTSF

“SARS-CoV-1 spike receptor-binding domain (S RBD) (domain or fragment)” gave a ΔF/F0 of the 1130 nm SWCNT emission peak after 90 min, 10 mg/L of 88.4%.
